{"source": "paper PMC8892339", "about": "(2022)", "assay_in_all_cases": "SPR, 37 °C", "key": {"[1]": {"target": "CD3ζ ITAM3 C peptide ITAM3 (Homo sapiens, UniProt P20963, C-terminal ITAM tyrosine monophosphorylated peptide; tSH2-GFP fusion)", "sequence (P20963 128-162)": "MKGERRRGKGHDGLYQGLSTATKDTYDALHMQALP"}, "[2]": {"target": "CD3ζ ITAM3 NC peptide ITAM3 (Homo sapiens, UniProt P20963, both ITAM tyrosines phosphorylated peptide; tSH2-GFP fusion)", "sequence (P20963 128-162)": "as above"}, "[3]": {"target": "CD3ζ ITAM3 N peptide ITAM3 (Homo sapiens, UniProt P20963, N-terminal ITAM tyrosine monophosphorylated peptide; tSH2-GFP fusion)", "sequence (P20963 128-162)": "as above"}}, "data": [{"binder": "ZAP70 tandem SH2 (protein) MPDPAAHLPFFYGSISRAEAEEHLKLAGMADGLFLLRQCLRSLGGYVLSLVHDVRFHHFPIERQLNGTYAIAGGKAHCGPAELCEFYSRDPDGLPCNLRKPCNRPSGLEPQPGVFDCLRDAMVRDYVRQTWKLEGEALEQAIISQAPQVEKLIATTAHERMPWYHSSLTREEAERKLYSGAQTDGKFLLRPRKEQGTYALSLIYGKTVYHYLISQDKAGKYCIPEGTKFDTLWQLVEYLKLKADGLIYCLKEACPNSSA", "values": [{"measurement": "Kd", "setting": "[1]", "result": 7.52, "unit": "µM"}, {"measurement": "Kd", "setting": "[2]", "result": 0.0962, "unit": "µM"}, {"measurement": "Kd", "setting": "[3]", "result": 20.7, "unit": "µM"}]}]}
